Measured values reported in paper PMC7942993.
Substitutions are numbered along the chain they refer to.

Key:
Assay in all cases: EMSA
Settings in all cases: EMSA: 40 mM HEPES pH 7.9, 300 mM KCl, 10% glycerol, 8% Ficoll, 2 mM EDTA, 0.2 mM MgCl2, 1 mM DTT, 600 ug BSA, 30 ug poly(dI-dC), 30 ul, 20 min, room …
[1] = target: T1, His-TRF1 T358D T358D (Homo sapiens) (UniProt P54274)
T1 sequence: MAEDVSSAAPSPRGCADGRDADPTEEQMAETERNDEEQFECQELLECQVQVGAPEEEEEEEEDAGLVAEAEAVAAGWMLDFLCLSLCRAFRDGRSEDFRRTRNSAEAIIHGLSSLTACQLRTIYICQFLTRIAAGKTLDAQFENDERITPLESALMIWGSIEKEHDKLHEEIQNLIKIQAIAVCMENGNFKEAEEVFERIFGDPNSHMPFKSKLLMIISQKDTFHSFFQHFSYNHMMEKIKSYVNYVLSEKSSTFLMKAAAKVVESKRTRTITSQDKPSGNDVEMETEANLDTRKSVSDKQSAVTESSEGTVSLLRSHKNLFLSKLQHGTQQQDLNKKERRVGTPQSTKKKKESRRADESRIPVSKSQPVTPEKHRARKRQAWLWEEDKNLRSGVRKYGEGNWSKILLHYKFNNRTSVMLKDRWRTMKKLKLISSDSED

[2] = target: T2, His-TRF1 WT (Homo sapiens) (UniProt P54274)
T2 sequence: T1 sequence with D358T

[3] = target: T3, His-TRF1 T273D T273D (Homo sapiens) (UniProt P54274)
T3 sequence: T1 sequence with T273D, D358T

## GGGTTAGGGTTAGGGTTAGGGTTAGGGTTAGGGTTAGGGTTAGGGCCCCTC (double strand) [ds (TTAGGG)7 telomeric probe]
[1]
  binding signal: > 1 fold of WT
[2]
  binding signal (fold of WT (reference)): 1
[3]
  binding signal: > 1 fold of WT
